# Reference: article PMC8286830 (Biochemical Journal, 2021)
# Like-named read-outs stand apart in the source and are kept apart here.
# B1: N-terminal domain of TgCEN1 (N-TgCEN1, 1–94 aa) (domain or fragment, Toxoplasma gondii, UniProt A0A125YHX7 1-94, looked up)
# chain: MHSRKGASSLPRGRGAGKKTELTEEQRQEIKEAFDLFDTDGSGCIDAKELKVAMRALGFEPKKEEIRKMIADVDKDGTGSVDFQEFLSLMTVKM
# B2: C-terminal domain of TgCEN1 (C-TgCEN1, 95–169 aa) (domain or fragment)
# chain: not shown
# Assays:
# [1] = target: T1, truncated variant of TgCEN1 lacking the first 21 residues (Δ21TgCEN1, 22–169) (Toxoplasma gondii, UniProt A0A125YHX7 22-169); assay: ITC
# T1 sequence (looked up): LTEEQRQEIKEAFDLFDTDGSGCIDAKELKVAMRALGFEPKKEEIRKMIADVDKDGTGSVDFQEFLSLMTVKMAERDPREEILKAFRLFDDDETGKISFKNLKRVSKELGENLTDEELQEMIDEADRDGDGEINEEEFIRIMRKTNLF
# [2] = target: B2; assay: ITC
# [3] = target: T1, truncated variant of TgCEN1 lacking the …; assay: ITC; remark: listed apart in the source
# [4] = target: T2, N-terminal domain of TgCEN1 lacking the first 21 residues (Δ21N-TgCEN1, 22–94 aa) (Toxoplasma gondii, UniProt A0A125YHX7 22-94); assay: ITC
# T2 sequence (looked up): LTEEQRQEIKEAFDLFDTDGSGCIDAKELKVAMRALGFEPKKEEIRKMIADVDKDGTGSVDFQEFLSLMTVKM
# [5] = target: B2; assay: ITC; remark: listed apart in the source
# dynamic light scattering [6] = target: the molecule itself; assay: dynamic light scattering
# dynamic light scattering [7] = target: the molecule itself; assay: dynamic light scattering; remark: listed apart in the source
binder,measurement,setting,value
"NWKLLAKGLLIRERLKR [P17-XPC peptide (17-residue peptide of the human xeroderma pigmentosum group C protein, N847-R863)]",Kd,[1],59.1 nM
same,dH,[1],-31.5 kcal/mol
same,stoichiometry N,[1],0.9
same,Kd,[2],50.1 nM
same,dH,[2],-28.4 kcal/mol
same,stoichiometry N,[2],0.8
same,"dH of site 1 (high-affinity site, two-site model)",[3],-23.8 kcal/mol
same,"dH of site 2 (low-affinity site, two-site model)",[3],-12.1 kcal/mol
same,Kd,[4],396 nM
same,dH,[4],-17.7 kcal/mol
same,stoichiometry N,[4],0.7
same,Kd,[5],6.7 nM
same,dH,[5],-22.9 kcal/mol
same,stoichiometry N,[5],0.8
B1,binding result,dynamic light scattering [6],binds
B2,binding result,dynamic light scattering [7],binds
